In the Immune Epitope Database (IEDB) one finds Kd data, which are given here for 14 sequences.

Targets include HLA-B*45:01; HLA-B*40:01; HLA-B*40:02; HLA-B*44:03; HLA-B*44:02; HLA-B*18:01; HLA-A*02:06; HLA-A*02:02; HLA-A*02:03; HLA-A*68:02; HLA-A*02:01.
Common to all, as to experiment: IEDB peptide-MHC binding, purified MHC/competitive/radioactivity; filed as Kd, often an IC50 or EC50 that approximates it; ≥ and ≤ were set here for values at or beyond the usual limits of such assays
A further experiment addresses HLA-B*53:01. The note with it: source organism: Vaccinia virus WR.
A further experiment concerns the target HLA-B*54:01. The note with it: source organism: Vaccinia virus WR.
The target of the next experiment is HLA-B*35:01. The note with it: source organism: Vaccinia virus WR.
In another experiment the target is HLA-B*07:02. The note with it: source organism: Vaccinia virus WR.
A further experiment addresses HLA-B*51:01. The note with it: source organism: Vaccinia virus WR.
A further experiment addresses HLA-A*11:01. The note with it: source organism: Vaccinia virus WR.
Where [1] appears, read: source organism: SARS coronavirus Tor2.
[2] abbreviates: source organism: Mammarenavirus lassaense.
[3] abbreviates: source organism: Mammarenavirus juninense.
Setting [4] is: source organism: Mammarenavirus brazilense.
Setting [5] is: source organism: Trypanosoma cruzi.
The mark [6] stands for this setting: source organism: Lymphocytic choriomeningitis virus (strain Armstrong).
The mark [7] stands for this setting: source organism: Vaccinia virus WR.
Setting [8] is: source organism: Lassa virus Josiah.

By Kd is commonly meant the free concentration of one partner at which half of the binding sites on the other are occupied at equilibrium, for simple one-to-one binding. With NEYTGNYQCG, the Kd with HLA-B*45:01 (setting [1]) was 1.79 µM; in the experiment with HLA-B*40:01 (setting [1]), at least 69.6 µM; with HLA-B*40:02 (setting [1]), at least 28.5 µM; in the experiment with HLA-B*44:03 (setting [1]) it was 7.52 µM; with HLA-B*44:02 (setting [1]), at least 70.2 µM; with HLA-B*18:01 (setting [1]) it was at least 33.4 µM.

PDYKRPGVS: the Kd is at least 77.7 µM with HLA-B*45:01 (setting [2]); at least 33.8 µM in the experiment with HLA-B*40:01 (setting [2]); 17.6 µM in the experiment with HLA-B*40:02 (setting [2]); at least 54.3 µM with HLA-B*44:03 (setting [2]); at least 77.9 µM in the experiment with HLA-B*44:02 (setting [2]); at least 77.5 µM with HLA-B*18:01 (setting [2]).

In the case of PELELNVDAM, the Kd with HLA-B*45:01 (setting [3]) was at least 70 µM; with HLA-B*40:01 (setting [3]), at least 69.5 µM; in the experiment with HLA-B*40:02 (setting [3]), 0.796 µM; in the experiment with HLA-B*44:03 (setting [3]) it was at least 70.1 µM; with HLA-B*44:02 (setting [3]) it was at least 70.2 µM; with HLA-B*18:01 (setting [3]) it was 0.367 µM.

For RELLGYCVSL, the Kd was 4.85 µM in the experiment with HLA-B*45:01 (setting [4]); 9.82 µM with HLA-B*40:01 (setting [4]); 0.00507 µM with HLA-B*40:02 (setting [4]); 5.06 µM in the experiment with HLA-B*44:03 (setting [4]); 1.92 µM in the experiment with HLA-B*44:02 (setting [4]); 12.8 µM with HLA-B*18:01 (setting [4]).

Take RELYLNSSNV: the Kd in the experiment with HLA-B*45:01 (setting [1]) was 0.0955 µM; with HLA-B*40:01 (setting [1]) it was 0.184 µM; with HLA-B*40:02 (setting [1]) it was 0.0192 µM; with HLA-B*44:03 (setting [1]), 1.07 µM; in the experiment with HLA-B*44:02 (setting [1]) it was 2.16 µM; with HLA-B*18:01 (setting [1]), at least 70.5 µM.

In the case of RLLPSLLLLL, the Kd came to 0.000585 µM in the experiment with HLA-A*02:06 (setting [5]), 0.00028 µM with HLA-A*02:02 (setting [5]), 0.000915 µM with HLA-A*02:03 (setting [5]) and 7.22 µM with HLA-A*68:02 (setting [5]).

SEAQMSIQLI: the equilibrium dissociation constant (Kd) in the experiment with HLA-B*45:01 (setting [2]) came to 0.997 µM; with HLA-B*40:01 (setting [2]), 1.8 µM; with HLA-B*40:02 (setting [2]), 0.936 µM; with HLA-B*44:03 (setting [2]), 0.235 µM; with HLA-B*44:02 (setting [2]) it was 0.0304 µM; with HLA-B*18:01 (setting [2]), 13.9 µM.

With SENDWFSCM, the Kd worked out at 0.117 µM with HLA-B*45:01 (setting [6]); 1.4 µM with HLA-B*40:01 (setting [6]); 0.164 µM in the experiment with HLA-B*40:02 (setting [6]); 0.0222 µM in the experiment with HLA-B*44:03 (setting [6]); 0.0211 µM with HLA-B*44:02 (setting [6]); 0.185 µM in the experiment with HLA-B*18:01 (setting [6]).

Regarding SMEAEMIQL, the Kd with HLA-A*02:02 (source organism: Homo sapiens) is 0.07 µM; in the experiment with HLA-A*02:03 (source organism: Homo sapiens), 2.38 µM; with HLA-A*02:01 (source organism: Homo sapiens), 0.0398 µM; with HLA-A*68:02 (source organism: Homo sapiens) it was at least 52.5 µM.

Turning to STCYVFGLY, the Kd with HLA-B*53:01 is 9.93 µM; in the experiment with HLA-B*54:01, 10.7 µM; in the experiment with HLA-A*02:06 (setting [7]), 6.14 µM; with HLA-A*02:02 (setting [7]), 13.4 µM; in the experiment with HLA-B*35:01 it was at least 38.2 µM; with HLA-B*07:02, at least 77.5 µM. Moreover, the Kd was at least 73.3 µM with HLA-B*51:01; at least 10 µM with HLA-A*02:03 (setting [7]); 4.16 µM with HLA-A*02:01 (setting [7]); 0.00786 µM with HLA-A*11:01; 1.38 µM with HLA-A*68:02 (setting [7]).

TEVMPVSMA: the Kd with HLA-B*45:01 (setting [1]) was 0.182 µM; in the experiment with HLA-B*40:01 (setting [1]), 15.4 µM; with HLA-B*40:02 (setting [1]) it was 0.0797 µM; in the experiment with HLA-B*44:03 (setting [1]) it was 3.85 µM; in the experiment with HLA-B*44:02 (setting [1]) it was 6.84 µM; with HLA-B*18:01 (setting [1]), 11.1 µM.

On to TSIGLICVIA, for which the Kd with HLA-A*68:02 (source organism: Dengue virus 3 Martinique/1243/1999) worked out at 0.0355 µM.

Take WVSGVSGNI: the Kd with HLA-A*68:02 (source organism: Dengue virus 4 Philippines/H241/1956) turned out to be 0.0101 µM.

In the case of YLISIFLHLV, the Kd with HLA-A*02:06 (setting [8]) was found to be 0.0086 µM; in the experiment with HLA-A*02:02 (setting [8]) it was 0.00273 µM; with HLA-A*02:03 (setting [8]) it was 0.00172 µM; with HLA-A*68:02 (setting [8]), 0.167 µM.
